Experimental data as given in patent US11352401.

Target: T1, HLA-A*02 (human)
T1 construct: MHC monomer made peptide-receptive by UV cleavage of a UV-sensitive ligand; also called peptide-receptive MHC class I monomer
Test: UV peptide-exchange ELISA; ++++ = yield >75%

Row | Binder | peptide exchange yield
1 | YVDINTFRL [YVDINTFRL (SEQ ID NO: 84)] | > 75%
2 | YIDEFQSLV [YIDEFQSLV (SEQ ID NO: 85)] | > 75%
3 | FVIDGFDEL [FVIDGFDEL (SEQ ID NO: 86)] | > 75%
4 | TLYPYQISQL [TLYPYQISQL (SEQ ID NO: 87)] | > 75%
5 | VQMVITEAQKV [VQMVITEAQKV (SEQ ID NO: 88)] | > 75%
6 | ILSTTMVTV [ILSTTMVTV (SEQ ID NO: 89)] | > 75%
7 | TLQEKILQV [TLQEKILQV (SEQ ID NO: 93)] | > 75%
8 | VLPDIETLIGV [VLPDIETLIGV (SEQ ID NO: 94)] | > 75%
9 | ITIGVLARV [ITIGVLARV (SEQ ID NO: 95)] | > 75%
10 | HLVGGLHTV [HLVGGLHTV (SEQ ID NO: 96)] | > 75%
11 | VLALVNSTV [VLALVNSTV (SEQ ID NO: 97)] | > 75%
12 | LQSSGLTLLL [LQSSGLTLLL (SEQ ID NO: 98)] | > 75%
13 | FLKEKVPGI [FLKEKVPGI (SEQ ID NO: 99)] | > 75%
14 | RQYPTPFQL [RQYPTPFQL (SEQ ID NO: 100)] | > 75%
15 | SLLEQAIAL [SLLEQAIAL (SEQ ID NO: 102)] | > 75%
16 | FLYYPDPVL [FLYYPDPVL (SEQ ID NO: 103)] | > 75%
17 | GMLDIFWGV [GMLDIFWGV (SEQ ID NO: 104)] | > 75%
18 | SLLTHIPTA [SLLTHIPTA (SEQ ID NO: 105)] | > 75%
19 | FIIDTTYPAYV [FIIDTTYPAYV (SEQ ID NO: 106)] | > 75%
20 | LLQGAIESV [LLQGAIESV (SEQ ID NO: 107)] | > 75%
21 | LLLGSIGLLGV [LLLGSIGLLGV (SEQ ID NO: 109)] | > 75%
22 | LLADFQALL [LLADFQALL (SEQ ID NO: 110)] | > 75%
23 | SVSDGIHSV [SVSDGIHSV (SEQ ID NO: 112)] | > 75%
24 | AVLTGLVEV [AVLTGLVEV (SEQ ID NO: 113)] | > 75%
25 | ILDERQVLL [ILDERQVLL (SEQ ID NO: 114)] | > 75%
26 | MLLETQDALYV [MLLETQDALYV (SEQ ID NO: 115)] | > 75%
27 | VLMEENSKL [VLMEENSKL (SEQ ID NO: 116)] | > 75%
28 | FLDPNARPLV [FLDPNARPLV (SEQ ID NO: 117)] | > 75%
29 | ALSSVLHSI [ALSSVLHSI (SEQ ID NO: 118)] | > 75%
30 | RTADITVTV [RTADITVTV (SEQ ID NO: 119)] | > 75%
